From paper doi:10.1101/2021.02.18.431817
Where two headings read alike, the source gives them in different places.

Tests used:
Test in all cases: EMSA
AtGAPC1 [1] = target: T1, AtGAPC1 (Arabidopsis thaliana, UniProt P25858 1-338)
AtGAPC2 = AtGAPC2 (Arabidopsis thaliana, UniProt Q9FX54 1-338)
GAPDH from rabbit muscle = GAPDH from rabbit muscle (rabbit, UniProt P46406 1-333)
AtGAPC1 [2] = target: T1, AtGAPC1; remark: listed apart in the source

T1 sequence (P25858 whole entry): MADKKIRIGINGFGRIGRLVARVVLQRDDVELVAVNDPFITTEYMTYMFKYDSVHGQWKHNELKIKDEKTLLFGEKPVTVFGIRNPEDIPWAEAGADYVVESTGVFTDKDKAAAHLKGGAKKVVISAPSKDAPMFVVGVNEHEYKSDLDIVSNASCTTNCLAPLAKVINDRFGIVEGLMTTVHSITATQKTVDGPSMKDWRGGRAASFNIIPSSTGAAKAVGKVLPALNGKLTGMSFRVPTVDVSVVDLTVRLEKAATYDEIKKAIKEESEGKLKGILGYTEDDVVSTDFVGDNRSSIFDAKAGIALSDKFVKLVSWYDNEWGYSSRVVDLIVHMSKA
Chain of AtGAPC2 (Q9FX54 whole entry): as the sequence (P25858 whole entry) above, with N61H, I65V, E68D, A92G, Y98F, A227S, L274M counted along it
Chain of GAPDH from rabbit muscle (P46406 whole entry): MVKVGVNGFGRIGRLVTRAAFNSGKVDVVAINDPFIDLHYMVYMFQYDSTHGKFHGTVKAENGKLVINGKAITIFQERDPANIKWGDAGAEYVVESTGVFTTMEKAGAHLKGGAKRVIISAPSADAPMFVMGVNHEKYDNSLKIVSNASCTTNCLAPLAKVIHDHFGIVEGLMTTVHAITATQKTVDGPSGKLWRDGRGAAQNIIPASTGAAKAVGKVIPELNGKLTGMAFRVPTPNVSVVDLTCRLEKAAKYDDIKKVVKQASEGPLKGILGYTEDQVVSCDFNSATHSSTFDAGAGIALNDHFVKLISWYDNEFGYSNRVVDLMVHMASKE

Binder | binding result (AtGAPC1 [1]) | binding result (AtGAPC2) | binding result (GAPDH from rabbit muscle) | binding result (AtGAPC1 [2])
AUAUAUUCUCCGGAGAA (ssRNA) [M1-RNA (consensus)] | binds |  |  | 
AUAUAUGAGAUUAGGGUUU (ssRNA) [M2-RNA (consensus)] | binds |  |  | 
UUAGCGUUUUAAUGUUGAGUGAGUAAGUUAAGGGGUU (ssRNA) [Random RNA (AT5G16470 5'-UTR, mutated M2)] | no binding |  |  | 
ACCAGAUUUUUUUCGCCGGAGUUUGUUUUGAUCCA (ssRNA) [SAP3 M1] |  | binds | binds | binds
